Assay [1] has as its target human HER2 (ErbB2) expressed on the surface of cell lines and primary cells (human) (UniProt P04626). Kind of assay: flow cytometry, MDAMB361 cells, [Ab] 20 ug/ml. Background: Flow cytometry measures light scatter and fluorescence of single cells or particles in a stream.
Assay [2] has the same target. Kind of assay: flow cytometry, ZR751 cells, [Ab] 1.25 ug/ml.
For assay [3] the target is unchanged. As to the kind of experiment: flow cytometry, MDAMB361 cells, [Ab] 10 ug/ml.
The target is the same in assay [4]. As to the kind of experiment: flow cytometry, ZR751 cells, [Ab] 20 ug/ml.
Assay [5] shares this target. As to the kind of experiment: flow cytometry, ZR751 cells, [Ab] 2.5 ug/ml.
The target is the same in assay [6]. As to the kind of experiment: flow cytometry, ZR751 cells, [Ab] 0.63 ug/ml.
Assay [7] has the same target. Kind of assay: flow cytometry, ZR751 cells, [Ab] 5 ug/ml.
Assay [8] has the same target. As to the kind of experiment: flow cytometry, ZR751 cells, [Ab] 10 ug/ml.
Assay [9] has the same target. As to the kind of experiment: flow cytometry, ZR751 cells, [Ab] 40 ug/ml.
The target is the same in assay [10]. Kind of assay: flow cytometry, JIMT1 cells, [Ab] 10 ug/ml.
Assay [11] has the same target. Kind of assay: flow cytometry, MDAMB361 cells, [Ab] 40 ug/ml.
For assay [12] the target is unchanged. As to the kind of experiment: flow cytometry, MDAMB361 cells, [Ab] 1.25 ug/ml.
For assay [13] the target is unchanged. As to the kind of experiment: flow cytometry, ZR751 cells, [Ab] 0.31 ug/ml.
Assay [14] has the same target. Kind of assay: flow cytometry, JIMT1 cells, [Ab] 20 ug/ml.
Assay [15] shares this target. As to the kind of experiment: flow cytometry, MDAMB361 cells, [Ab] 5 ug/ml.
For assay [16] the target is unchanged. As to the kind of experiment: flow cytometry, JIMT1 cells, [Ab] 1.25 ug/ml.
Assay [17] shares this target. Kind of assay: flow cytometry, JIMT1 cells, [Ab] 5 ug/ml.

On to IC1 (isotype control antibody), for which the MFI A.U. in assay [1] turned out to be 617 A.U; in assay [2], 312 A.U; in assay [3], 605 A.U; in [4], 2540 A.U; in assay [5], 484 A.U; in assay [6], 271 A.U. Further, the MFI A.U. in [7] was found to be 696 A.U; in assay [8] it was 1080 A.U; in [9], 3320 A.U; in assay [10] it was 240 A.U; in assay [11] it was 558 A.U; in [12], 202 A.U. Further, the MFI A.U. in [13] is 199 A.U; in [14] it was 516 A.U; in assay [15], 253 A.U; in [16], 183 A.U; in [17], 190 A.U.

The values above are taken from US20240254255A1.
